Consider 25 sequences from the supplement of paper PMC10598134.

This data set is described as follows: collision cross section of modified peptide (TIMS, N2, iRT-aligned); higher = larger / more extended gas-phase ion. The procedure, abridged:
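Collision cross section was derived from the Mason-Schamp equation. Each value averages 1–3 technical replicates of the most abundant feature per charge state, measured on a timsTOF Pro/HT in dda-PASEF mode (nitrogen, ~2.4 mbar) after a 120-min nanoflow C18 gradient at 60 °C. Synthetic peptide pools (~100 fmol/µL in 2% acetonitrile/0.1% formic acid, iRT standard spiked 1:40) were identified with MaxQuant, and 1/K0 was calibrated with three reference ions and aligned run-wise to the median iRT peptide deviation.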

Setting [1] is: charge state: 2, modification: Glutarylation.
[2] abbreviates: charge state: 3, modification: Glutarylation.
Where [3] appears, read: charge state: 3, modification: hydroxyisobutyryl.
[4] abbreviates: charge state: 2, modification: Butyryl.
[5] abbreviates: charge state: 2, modification: Methyl (K).
Where [6] appears, read: charge state: 3, modification: Methyl (K).
Setting [7] is: charge state: 3, modification: Crotonyl.
The mark [8] stands for this setting: charge state: 3, modification: Butyryl.
The mark [9] stands for this setting: charge state: 2, modification: Crotonyl.

± gives the standard deviation.

Consider “TFGKAAGPSLSHTSGGTQSK [_TFGK(Acetyl (K))AAGPSLSHTSGGTQSK_]”, for which the collision cross section is, setting by setting: (charge state: 2, modification: Acetyl (K)) 486.77 ± 4.6 Å²; (charge state: 3, modification: Acetyl (K)) 516.14 ± 6 Å². On to “ALLQAKASGK [_ALLQAK(Trimethyl (K))ASGK_]”, for which the collision cross section reads like this: (charge state: 2, modification: Trimethyl (K)) 354.6 ± 1.6 Å²; (charge state: 3, modification: Trimethyl (K)) 406.65 Å².

Take GSLEKGSPEDK [_GSLEK(Malonyl)GSPEDK_]: the collision cross section (charge state: 2, modification: Malonyl) is listed as 365.48 ± 0.011 Å². As to “LGVATVAKGVCGACK [_LGVATVAK(Gluratylation)GVCGACK_]”, the collision cross section is, setting by setting: under setting [1], 422.53 Å²; under setting [2], 500.02 Å². With DDSNLYINVK [_DDSNLY(Nitro (Y))INVK_], for the setting “charge state: 2, modification: Nitro (Y)”, the collision cross section is 367.46 ± 0.55 Å².

As for “DSINFLDHINGKK [_DSINFLDHINGK(hydroxyisobutyryl)K_]”, the collision cross section under setting [3] worked out at 468.17 ± 2.7 Å². In the case of LQLEIDQKK [_LQLEIDQK(Butyryl)K_], the collision cross section under setting [4] stood at 370.32 ± 1.2 Å². Take “GGGFGAHGRGR [_GGGFGAHGR(Citrullination (R))GR_]”: the collision cross section reads like this: (charge state: 2, modification: Citrullination (R)) 343.86 ± 0.28 Å²; (charge state: 3, modification: Citrullination (R)) 412.59 ± 0.45 Å². Consider “KYEEIDNAPEER [_K(Methyl (K))YEEIDNAPEER_]”, for which the collision cross section worked out at 398.83 ± 1.1 Å² under setting [5] and 466.31 ± 3.7 Å² under setting [6]. VETTVTSLKTK [_VETTVTSLK(Methyl (K))TK_]: the collision cross section was found to be 381.5 ± 1.8 Å² under setting [5] and 455.24 ± 7.2 Å² under setting [6]. With “GLPGLAGDHGEFGEK [_GLP(Hydroxyproline)GLAGDHGEFGEK_]”, the collision cross section was determined as 432.14 ± 0.34 Å² (charge state: 2, modification: Hydroxyproline) and 497.67 ± 1.7 Å² (charge state: 3, modification: Hydroxyproline). “DSINFLDHINGKK [_DSINFLDHINGK(Crotonyl)K_]” came in with a collision cross section under setting [7] of 467.81 Å². “VGTASVLQPVKK [_VGTASVLQPVK(hydroxyisobutyryl)K_]”: the collision cross section reads like this: (charge state: 2, modification: hydroxyisobutyryl) 388.32 ± 0.29 Å²; under setting [3], 413.48 ± 1.6 Å².

For the sequence “DVNAAIAAIKTK [_DVNAAIAAIK(Dimethyl (K))TK_]”, the collision cross section amounted to 394.29 ± 0.87 Å² (charge state: 2, modification: Dimethyl (K)) and 456.19 ± 1.7 Å² (charge state: 3, modification: Dimethyl (K)).

“ALASIDSKLNQAK [_ALASIDSK(Gluratylation)LNQAK_]” showed a collision cross section under setting [1] of 406.86 ± 0.54 Å² and a collision cross section under setting [2] of 470.57 Å². As for PRLPATGTFK [_PR(Methyl (R))LPATGTFK_], the collision cross section reads like this: (charge state: 2, modification: Methyl (R)) 353.59 ± 0.84 Å²; (charge state: 3, modification: Methyl (R)) 458.58 ± 3 Å². Consider LTEKELAEAASK [_LTEK(Butyryl)ELAEAASK_], for which the collision cross section was found to be 394.05 ± 1.5 Å² under setting [4] and 455.88 Å² under setting [8]. PSVSTKLISK [_PSVSTK(Crotonyl)LISK_]: the collision cross section under setting [9] worked out at 357.15 ± 0.8 Å². On to LQDVSGQLSSSKK [_LQDVSGQLSSSK(Biotin)K_], for which the collision cross section (charge state: 2, modification: Biotin) stood at 425.22 ± 2.6 Å² and the collision cross section (charge state: 3, modification: Biotin) is given as 506.69 Å². “LNAIYQNNLTK [_LNAIY(Phospho (Y))QNNLTK_]” registered a collision cross section (charge state: 2, modification: Phospho (Y)) of 390.25 ± 0.67 Å². In the case of “AAQASDLEKIHLDEK [_AAQASDLEK(Crotonyl)IHLDEK_]”, the collision cross section was determined as 464.23 ± 0.82 Å² under setting [9] and 499.02 ± 2.2 Å² under setting [7]. For the sequence ITASLCDLKSR [_ITASLCDLK(GlyGly (K))SR_], the collision cross section (charge state: 2, modification: GlyGly (K)) was 398.64 ± 0.87 Å² and the collision cross section (charge state: 3, modification: GlyGly (K)) amounted to 457.36 ± 1.1 Å². For “PSVGSQSNQAGQGKR [_PSVGSQSNQAGQGK(Butyryl)R_]”, the collision cross section came out at 416.92 ± 1.1 Å² under setting [4] and 475.14 ± 7.3 Å² under setting [8].

Regarding “PSVGSQSNQAGQGKR [_PSVGSQSNQAGQGK(Succinyl)R_]”, the collision cross section reads like this: (charge state: 2, modification: Succinyl) 415.39 ± 2 Å²; (charge state: 3, modification: Succinyl) 455.72 ± 2.4 Å². “VLTANSNPSSPSAAKR [_VLTANSNPSSPSAAK(Methyl (K))R_]”: the collision cross section turned out to be 432.87 ± 1.5 Å² under setting [5] and 521.25 ± 1.8 Å² under setting [6].
